Paper PMC3229523, “Identification of Lactoferricin B Intracellular Targets Using an Escherichia coli Proteome Chip” (PLoS ONE, 2011)
Ends that are not written are not given here. * marks the point of attachment. Biotin = O=C1N[C@H]2[C@H](CS[C@H]2CCCCC(=O)*)N1

What was measured:
Assay in all cases: peptide or protein array; E. coli proteome chip: purified His-tagged proteins printed in duplicate on Fullmoon slides, blocked with 1% BSA; 10 nM N-terminal biotinylated LfcinB with 1% BSA, room temperature, 1 h; detected with DyLight 649-labeled streptavidin, ratio to DyLight 549-labeled anti-His antibody; ProCAT normalisation, local cut-off; triplicate chips
Settings in all cases: both partners purified
[1] = molecular target: T1, CadA (E. coli K-12, UniProt P0A9H3 1-715)
T1 construct: CadA, E. coli K-12
T1 sequence (looked up): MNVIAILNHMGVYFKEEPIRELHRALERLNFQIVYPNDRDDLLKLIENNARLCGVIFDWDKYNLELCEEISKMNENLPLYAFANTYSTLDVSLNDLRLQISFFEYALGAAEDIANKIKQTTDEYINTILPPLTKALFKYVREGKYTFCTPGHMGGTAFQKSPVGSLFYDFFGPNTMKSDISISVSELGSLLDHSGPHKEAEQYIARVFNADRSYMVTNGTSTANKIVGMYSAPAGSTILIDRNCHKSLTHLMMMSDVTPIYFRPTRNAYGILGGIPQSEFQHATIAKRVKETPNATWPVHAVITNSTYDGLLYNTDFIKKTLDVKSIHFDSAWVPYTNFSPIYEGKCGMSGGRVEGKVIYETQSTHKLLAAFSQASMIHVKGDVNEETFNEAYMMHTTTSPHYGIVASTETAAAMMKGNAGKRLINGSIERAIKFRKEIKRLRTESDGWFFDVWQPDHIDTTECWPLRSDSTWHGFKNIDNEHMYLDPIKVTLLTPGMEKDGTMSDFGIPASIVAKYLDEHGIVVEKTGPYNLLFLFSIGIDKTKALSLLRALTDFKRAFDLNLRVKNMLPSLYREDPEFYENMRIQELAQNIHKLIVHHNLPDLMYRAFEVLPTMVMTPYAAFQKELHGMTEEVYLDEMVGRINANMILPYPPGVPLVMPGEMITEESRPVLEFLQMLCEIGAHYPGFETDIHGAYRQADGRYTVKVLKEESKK

[2] = molecular target: T2, YnhE (E. coli K-12, UniProt P77522 1-495)
T2 construct: YnhE, E. coli K-12
T2 sequence (looked up): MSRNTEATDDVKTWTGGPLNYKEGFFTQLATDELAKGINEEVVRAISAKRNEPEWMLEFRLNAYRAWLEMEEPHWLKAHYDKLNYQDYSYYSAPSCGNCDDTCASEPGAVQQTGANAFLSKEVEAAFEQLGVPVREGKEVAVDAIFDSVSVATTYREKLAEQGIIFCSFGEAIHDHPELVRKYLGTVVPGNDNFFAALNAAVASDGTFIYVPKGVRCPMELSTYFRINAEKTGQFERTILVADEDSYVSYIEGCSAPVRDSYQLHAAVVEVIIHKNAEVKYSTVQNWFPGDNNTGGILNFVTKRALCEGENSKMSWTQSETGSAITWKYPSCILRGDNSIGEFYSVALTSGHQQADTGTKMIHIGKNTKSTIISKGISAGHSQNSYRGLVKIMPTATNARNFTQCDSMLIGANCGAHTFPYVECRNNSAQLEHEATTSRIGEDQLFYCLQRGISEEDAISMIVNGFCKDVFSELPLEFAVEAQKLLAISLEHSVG

[3] = molecular target: T3, YbcQ (E. coli K-12, UniProt Q47274 1-127)
T3 construct: YbcQ, E. coli K-12
T3 sequence (looked up): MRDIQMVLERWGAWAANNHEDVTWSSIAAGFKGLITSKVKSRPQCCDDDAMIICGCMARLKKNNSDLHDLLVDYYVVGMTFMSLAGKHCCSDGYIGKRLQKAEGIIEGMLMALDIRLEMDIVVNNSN

[4] = molecular target: T4, YibN (E. coli K-12, UniProt P0AG27 1-143)
T4 construct: YibN, E. coli K-12
T4 sequence (looked up): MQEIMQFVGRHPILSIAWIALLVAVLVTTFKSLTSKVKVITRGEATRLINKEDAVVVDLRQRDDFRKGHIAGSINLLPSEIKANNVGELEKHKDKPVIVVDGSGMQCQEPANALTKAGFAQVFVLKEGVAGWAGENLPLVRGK

[5] = molecular target: T5, AdiY (E. coli K-12, UniProt P33234 1-253)
T5 construct: AdiY, E. coli K-12
T5 sequence (looked up): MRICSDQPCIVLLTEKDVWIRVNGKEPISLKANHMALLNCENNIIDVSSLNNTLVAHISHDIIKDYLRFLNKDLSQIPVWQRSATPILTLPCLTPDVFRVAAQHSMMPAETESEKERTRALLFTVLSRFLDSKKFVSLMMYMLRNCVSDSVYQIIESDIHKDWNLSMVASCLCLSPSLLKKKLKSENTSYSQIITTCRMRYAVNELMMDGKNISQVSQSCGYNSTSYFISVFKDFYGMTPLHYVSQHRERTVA

Measured: binding result

B1: N-terminal biotinylated Lactoferricin B (peptide, UniProt P24627 36-60, looked up)
peptide: Biotin-FKCRRWQWRMKKLGAPSITCVRRAF
modifications: ends and bridges not checked
notes: lactoferricin B (LfcinB), cationic antimicrobial peptide of 25 amino acids; also called biotinylated LfcinB; biotin-labeled LfcinB; source: bought: Kelowna Inc
binds: [1] | [2] | [3] | [4] | [5]
